The values below come from patent publication US20150079113A1 (MIT, published 2015).

To fix the notation:
B1: Purified His-tagged LERER repeat protein (His-LERER) (other, mouse, UniProt Q03173 175-252, looked up)
chain: LERERMERERLERERLERERLERERLEQEQLERQRQEREHVERLERERLERLERERQERERERLEQLEREQVEWERER
notes: domain: LERER repeat; Expressed and purified from E. coli (pQE80L-His-LERER); also called LERER repeat region of Mena; not shown: His tag of the pQE80L vector
B2: GFP-tagged EVH1 domain of Mena (other, UniProt Q03173 1-112, looked up)
chain: MSEQSICQARAAVMVYDDANKKWVPAGGSTGFSRVHIYHHTGNNTFRVVGRKIQDHQVVINCAIPKGLKYNQATQTFHQWRDARQVYGLNFGSKEDANVFASAMMHALEVLN
notes: domain: EVH1 domain; not shown: GFP tag
B3: GFP-MenaΔLERER (other, UniProt Q03173-3 1-541, looked up)
chain: MSEQSICQARAAVMVYDDANKKWVPAGGSTGFSRVHIYHHTGNNTFRVVGRKIQDHQVVINCAIPKGLKYNQATQTFHQWRDARQVYGLNFGSKEDANVFASAMMHALEVLNSQEAGPTLPRQNSQLPAQVQNGPSQEELEIQRRQLQEQQRQKERMSNAAAPASAETPLNPELGDSSASEPGLQAASQPAESPTPQGLVLGPPAPPPPPPLPSGPAYASALPPPPGPPPPPPLPSTGPPPPPPPPPPLPNQAPPPPPPPPAPPLPASGIFSGSTSEDNRPLTGLAAAIAGAKLRKVSRVEDGSFPGGGNTGSVSLASSKADAGRGNGPLPLGGSGLMEEMSALLARRRRIAEKGSTIETEQKEDRNEDAEPITAKAPSTSTPEPTRKPWERTNTMNGSKSPVISRPKSTPSSQPSANGVQTEGLDYDRLKQDILDEMRKELAKLKEELIDAIRQELSKSNTA
notes: Expressed in MVD7 cells; also called Mena mutant lacking the LERER repeat; not shown: GFP tag
B4: β1 integrin (endogenous) (receptor, mouse, UniProt P09055 21-798, looked up)
chain: QTDKNRCLKANAKSCGECIQAGPNCGWCTNTTFLQEGMPTSARCDDLEALKKKGCQPSDIENPRGSQTIKKNKNVTNRSKGMAEKLRPEDITQIQPQQLLLKLRSGEPQKFTLKFKRAEDYPIDLYYLMDLSYSMKDDLENVKSLGTDLMNEMRRITSDFRIGFGSFVEKTVMPYISTTPAKLRNPCTSEQNCTSPFSYKNVLSLTDRGEFFNELVGQQRISGNLDSPEGGFDAIMQVAVCGSLIGWRNVTRLLVFSTDAGFHFAGDGKLGGIVLPNDGQCHLENNVYTMSHYYDYPSIAHLVQKLSENNIQTIFAVTEEFQPVYKELKNLIPKSAVGTLSGNSSNVIQLIIDAYNSLSSEVILENSKLPDGVTINYKSYCKNGVNGTGENGRKCSNISIGDEVQFEISITANKCPNKESETIKIKPLGFTEEVEVVLQFICKCNCQSHGIPASPKCHEGNGTFECGACRCNEGRVGRHCECSTDEVNSEDMDAYCRKENSSEICSNNGECVCGQCVCRKRDNTNEIYSGKFCECDNFNCDRSNGLICGGNGVCRCRVCECYPNYTGSACDCSLDTGPCLASNGQICNGRGICECGACKCTDPKFQGPTCETCQTCLGVCAEHKECVQCRAFNKGEKKDTCAQECSHFNLTKVESREKLPQPVQVDPVTHCKEKDIDDCWFYFTYSVNGNNEAIVHVVETPDCPTGPDIIPIVAGVVAGIVLIGLALLLIWKLLMIIHDRREFAKFEKEKMNAKWDTGENPIYKSAVTTVVNPKYEGK
notes: whole, on cells
B5: α5 integrin (endogenous) (receptor, mouse, UniProt P11688 45-1053, looked up)
chain: FNLDAEAPAVLSGPPGSLFGFSVEFYRPGRDGVSVLVGAPKANTSQPGVLQGGAVYVCPWGTSPIQCTTIQFDSKGSRILESSLYSAKGEEPVEYKSLQWFGATVRAHGSSILACAPLYSWRTEKDPQNDPVGTCYLSTENFTRILEYAPCRSDFGSAAGQGYCQGGFSAEFTKTGRVVLGGPGSYFWQGQILSATQEQISESYYPEYLINPVQGQLQTRQASSVYDDSYLGYSVAVGEFSGDDTEDFVAGVPKGNLTYGYVTVLNGSDIHSLYNVSGEQMASYFGYAVAATDTNGDGLDDLLVGAPLLMERTADGRPQEVGRVYIYLQRPAGIDPTPTLTLTGQDEFSRFGSSLTPLGDLDQDGYNDVAIGAPFGGEAQQGVVFIFPGGPGGLSTKPSQVLQPLWAAGRTPDFFGSALRGGRDLDGNGYPDLIVGSFGVDKALVYRGRPIISASASLTIFPSMFNPEERSCSLEGNPVSCINLSFCLNASGKHVPNSIGFEVELQLDWQKQKGGVRRALFLTSKQATLTQTLLIQNGAREDCREMKIYLRNESEFRDKLSPIHIALNFSLDPKAPMDSHGLRPVLHYQSKSRIEDKAQILLDCGEDNICVPDLQLDVYGEKKHVYLGDKNALNLTFHAQNLGEGGAYEAELRVTAPLEAEYSGLVRHPGNFSSLSCDYFAVNQSRQLVCDLGNPMKAGTSLWGGLRFTVPHLQDTKKTIQFDFQILSKNLNNSQSNVVSFPLSVEAQAQVSLNGVSKPEAVIFPVSDWNPQDQPQKEEDLGPAVHHVYELINQGPSSISQGVLELSCPQALEGQQLLYVTKVTGLSNCTSNYTPNSQGLELDPETSPHHLQKREAPGRSSTASGTQVLKCPEAKCFRLRCEFGPLHRQESRSLQLHFRVWAKTFLQREYQPFSLQCEAVYEALKMPYQILPRQLPQKKLQVATAVQWTKAEGSNGVPLWIIILAILFGLLLLGLLIYVLYKLGFFKRSLPYGTAMEKAQLKPPATSDA
notes: whole, on cells; Present in cells as the α5β1 heterodimer; detected by immunofluorescence or immunoprecipitated from lysates; also called endogenous α5; alpha5 integrin

One experiment deals with T1, Purified GST (UniProt P08515 1-218 = GST).
T1 construct: Control bait in the pull-down assay
The experiment in a line: GST pull-down with purified proteins, western blot with anti-His. (A western blot detects proteins with antibodies after separation by electrophoresis.)

For experiment [1], the target named is B5. Put plainly: recruitment of α5 to mitochondria in cells expressing FP4-Mito, immunofluorescence.
Experimental: Microscopy—Cells were fixed in 4% paraformaldehyde in PHEM buffer warmed to 37° C. for 20 minutes. Cells were permeabilized in 0.2% TX-100 and blocked in 10% Donkey Serum. […] (Abcam ab25247), integrin αv [RMV-7] (Abcam ab63490), integrin α6 [GoH3] […] F-actin was stained with AlexaFluor Phalloidin (Invitrogen). Z series of images were taken on an Olympus microscope with a 60× plan apo objective. Images were deconvolved using Deltavision Softworx software.
Experiment [2] concerns the target B5. The experiment in a line: cell-based or functional assay.
Experiment [3] concerns the target B5. Put plainly: recruitment to mitochondria in cells expressing FP4-Mito, immunofluorescence.
Experimental: Microscopy—Cells were fixed in 4% paraformaldehyde in PHEM buffer warmed to 37° C. for 20 minutes. Cells were permeabilized in 0.2% TX-100 and blocked in 10% Donkey Serum. […] (Abcam ab25247), integrin αv [RMV-7] (Abcam ab63490), integrin α6 [GoH3] […] F-actin was stained with AlexaFluor Phalloidin (Invitrogen).
For experiment [4], the target named is p34 subunit of Arp2/3 (endogenous) (UniProt Q9CVB6 1-300). Put plainly: α5 immunoprecipitation from NIH3T3 cell lysates, western blot.
Text: To determine if endogenously expressed Mena and α5 integrin form complexes within cells, α5 integrin was immunoprecipitated from NIH3T3 cell lysates followed by Western blot analysis (FIG. 2B).
Western Blotting/Immunoprecipitation. Standard procedures were used for protein electrophoresis, western blotting and immunoprecipitations. Western blots were developed using HRP secondary antibodies and ECL reagent (Amersham). […] Beads were washed three times in lysis buffer, and proteins were eluted in sample buffer.

T1 sequence (P08515 whole entry): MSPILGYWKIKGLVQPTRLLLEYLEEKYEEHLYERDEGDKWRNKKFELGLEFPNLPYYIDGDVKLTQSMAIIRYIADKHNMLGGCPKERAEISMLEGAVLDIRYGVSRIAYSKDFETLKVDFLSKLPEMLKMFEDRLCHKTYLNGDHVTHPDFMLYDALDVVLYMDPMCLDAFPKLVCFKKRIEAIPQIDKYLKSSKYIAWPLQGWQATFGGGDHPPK
Experimental for Purified GST: After incubation, GST- and GST-α5 beads containing the His-LERER bound fraction were recovered and analyzed by western blotting along with aliquots of unbound protein from the supernatant.
Binding Assays: GST-α5 integrin constructs and His-tagged variants of the LERER repeat region were expressed and purified from E. Coli. 10 nM α5 integrin cytoplasmic tail was immobilized on Glutathione beads and incubated for 1 hour, 4° C. with 200 nM His-LERER variants at constant agitation in PBS with 0.1% TritonX-100 and 2 mM βME. Beads were washed three times, and proteins were eluted in sample buffer, and assayed by western blot.

Consider B1, for which the binding result with Purified GST is “no binding (tested: 200 nM His-LERER variants)”.

As to B2, the binding result with α5 integrin (endogenous) [1] was “no binding”.

On to B3, for which the “t1/2 of fluorescence recovery (FRAP) in nascent, peripheral adhesions, cells plated for 30 minutes on FN” value with α5 integrin (endogenous) [2] is 11.9 s. Also, in the experiment with α5 integrin (endogenous) [1], the binding result is reported as “no binding”.

With B4, the binding result with α5 integrin (endogenous) [3] is recorded as “binds”.

Turning to B5, the binding result in experiment [4] was “no binding”.
